Each substance was assayed against rfa2_human RPA2 (UniProt P15927).
Sequence of rfa2_human RPA2 (P15927 whole entry): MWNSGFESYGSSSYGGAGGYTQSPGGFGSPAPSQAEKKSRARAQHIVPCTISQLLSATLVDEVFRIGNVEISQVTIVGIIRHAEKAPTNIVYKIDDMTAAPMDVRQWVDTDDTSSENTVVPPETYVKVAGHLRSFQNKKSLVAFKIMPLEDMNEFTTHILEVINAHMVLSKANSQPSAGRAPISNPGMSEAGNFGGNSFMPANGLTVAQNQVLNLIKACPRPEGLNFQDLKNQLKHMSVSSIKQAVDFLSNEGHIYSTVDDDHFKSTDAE

Effect of a mutation on the interaction, disrupting interaction:
Bifunctional 3'-5' exonuclease/ATP-dependent helicase WRN (Homo sapiens), Q14191 S991A
Bifunctional 3'-5' exonuclease/ATP-dependent helicase WRN (Homo sapiens), Q14191 S1256A
Bifunctional 3'-5' exonuclease/ATP-dependent helicase WRN (Homo sapiens), Q14191 T1152A

Biological target: rfa2_human RPA2 (UniProt P15927)
Remark: another data set of the same source

Effect of a mutation on the interaction, disrupting interaction:
Bifunctional 3'-5' exonuclease/ATP-dependent helicase WRN (Homo sapiens), Q14191 S1058A
Bifunctional 3'-5' exonuclease/ATP-dependent helicase WRN (Homo sapiens), Q14191 S1141A
Bifunctional 3'-5' exonuclease/ATP-dependent helicase WRN (Homo sapiens), Q14191 S1292A

From IntAct's records for PubMed 20802463
